This is an account of results in PMC3849134.

Like-named read-outs stand apart in the source and are kept apart here.

Holding throughout (test): radioligand binding
Assay [1] concerns the target self-assembling peptide AcN-(KLDL)3-CNH2.
For assay [2] the target is unchanged. This is another data set of the same source.
Assay [3] shares this target. This is another data set of the same source.

As to “^125I-TGF-β1 (radiolabelled transforming growth factor β1) (ligand)”, in assay [1], the percent of loaded released (cumulative), day 21 came out at 44% and the percent of loaded retained in the hydrogel, day 21 was determined as 56%. Further, in assay [2], the uptake ratio (concentration in gel / concentration in bath) came to 85.8. Besides, in assay [3], the percent of loaded released (cumulative), day 3 lay in the range of 13 to 16%; the percent of loaded released (cumulative), day 7 was found to be 25%; the percent of loaded released (cumulative), day 14 worked out at 27%; the percent of loaded released (cumulative), day 21 was found to be 32%. Besides, in assay [3], the percent of loaded retained in the hydrogel, day 21 came out at 68% and the uptake ratio (concentration in gel / concentration in bath) was 18.5.
